Reference: PMC4493999

Target: anaphase-promoting complex/cyclosome (APC/C) complex (human (endogenous in HeLa)) (UniProt P30260)
Assay: co-IP

UniProt P30260, sequence (P30260 whole entry, looked up, one chain of several): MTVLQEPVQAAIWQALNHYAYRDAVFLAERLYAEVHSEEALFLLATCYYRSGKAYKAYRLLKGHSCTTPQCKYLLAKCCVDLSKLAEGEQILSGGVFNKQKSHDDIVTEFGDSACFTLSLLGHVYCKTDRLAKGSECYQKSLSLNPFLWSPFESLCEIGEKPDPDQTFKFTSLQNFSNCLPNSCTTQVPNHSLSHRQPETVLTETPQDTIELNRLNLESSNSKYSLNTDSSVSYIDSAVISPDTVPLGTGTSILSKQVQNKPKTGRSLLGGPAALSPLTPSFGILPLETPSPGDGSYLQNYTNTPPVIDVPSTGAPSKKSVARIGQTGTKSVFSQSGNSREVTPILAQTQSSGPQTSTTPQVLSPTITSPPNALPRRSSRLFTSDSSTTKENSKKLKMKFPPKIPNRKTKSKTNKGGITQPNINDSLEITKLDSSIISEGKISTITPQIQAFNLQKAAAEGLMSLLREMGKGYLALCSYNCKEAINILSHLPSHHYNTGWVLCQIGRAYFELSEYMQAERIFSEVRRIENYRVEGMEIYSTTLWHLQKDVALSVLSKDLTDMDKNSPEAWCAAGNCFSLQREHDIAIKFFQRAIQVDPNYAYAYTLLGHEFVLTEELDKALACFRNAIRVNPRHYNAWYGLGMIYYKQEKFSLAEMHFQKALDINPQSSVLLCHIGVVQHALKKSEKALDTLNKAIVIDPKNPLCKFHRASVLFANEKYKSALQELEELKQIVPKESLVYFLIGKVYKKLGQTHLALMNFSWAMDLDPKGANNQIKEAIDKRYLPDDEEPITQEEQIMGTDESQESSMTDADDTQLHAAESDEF

- amount coprecipitated, percent of that of Cdh1 S40A: 20%
- amount coprecipitated, percent of that of wild-type Cdh1: 30%
Substance: HA-tagged human Cdh1 S40D (from UniProt Q9UM11 1-496) (natural protein)
